Columns and labels:
[1] = biological target: T1, cyno PRLR ECD-his6 protein (cyno); assay: ELISA on ECD
T1 chain: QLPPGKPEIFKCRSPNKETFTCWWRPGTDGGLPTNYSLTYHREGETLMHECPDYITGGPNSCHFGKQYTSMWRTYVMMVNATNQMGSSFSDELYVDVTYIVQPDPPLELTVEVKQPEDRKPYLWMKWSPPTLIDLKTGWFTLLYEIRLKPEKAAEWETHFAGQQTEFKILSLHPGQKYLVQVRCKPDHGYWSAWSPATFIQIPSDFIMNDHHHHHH
Method: (§1) Plates were blocked for 1 hour with Superblock (Pierce) and washed (3×) with wash buffer (lx PBS (pH 7.4), 0.05% Tween 20). ECD proteins were bound to the appropriate antibody (1 hour) in binding buffer (wash buffer plus 10% Superblock), washed (3×, wash buffer), and then incubated with serial dilutions of antibodies (1 hour) in binding buffer. After washing (3×, wash buffer), secondary antibodies conjugated to HRP were bound (1 hour) in binding buffer, washed (3×, wash buffer), and incubated with TMB substrate (Pierce) to develop signal for 3-5 minutes, stopped with 2N H₂SO₄ and scanned at […]. Curves were fit with GraphPad 5 (Prizm) and EC50's were determined with curve fitting function of GraphPad 5.

[2] = biological target: T2, human PRLR ECD-Fc fusion protein (human, UniProt P16471 25-233); assay: ELISA on ECD
T2 construct: not shown: Fc region (captured by goat anti-human Fc)
T2 sequence: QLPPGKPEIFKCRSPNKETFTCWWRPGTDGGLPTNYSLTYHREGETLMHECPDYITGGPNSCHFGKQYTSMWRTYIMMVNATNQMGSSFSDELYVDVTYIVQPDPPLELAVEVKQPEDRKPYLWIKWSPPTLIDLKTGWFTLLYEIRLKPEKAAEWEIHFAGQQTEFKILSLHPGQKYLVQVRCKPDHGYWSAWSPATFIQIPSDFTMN
Method: as §1

[3] = biological target: T3, mouse PRLR ECD-Fc fusion protein (mouse, UniProt Q08501 20-229); assay: ELISA on ECD
T3 construct: extracellular domain; not shown: Fc region (captured by goat anti-human Fc)
T3 sequence (looked up): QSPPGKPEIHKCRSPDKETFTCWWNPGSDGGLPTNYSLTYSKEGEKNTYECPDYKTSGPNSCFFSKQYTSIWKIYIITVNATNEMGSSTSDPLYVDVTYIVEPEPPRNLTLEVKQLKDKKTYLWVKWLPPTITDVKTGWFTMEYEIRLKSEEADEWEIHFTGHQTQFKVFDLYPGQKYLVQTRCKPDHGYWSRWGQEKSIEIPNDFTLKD
Method: as §1

[4] = biological target: T4, human PRLR on cells (human, UniProt P16471 25-622); assay: cell-based or functional assay
T4 sequence: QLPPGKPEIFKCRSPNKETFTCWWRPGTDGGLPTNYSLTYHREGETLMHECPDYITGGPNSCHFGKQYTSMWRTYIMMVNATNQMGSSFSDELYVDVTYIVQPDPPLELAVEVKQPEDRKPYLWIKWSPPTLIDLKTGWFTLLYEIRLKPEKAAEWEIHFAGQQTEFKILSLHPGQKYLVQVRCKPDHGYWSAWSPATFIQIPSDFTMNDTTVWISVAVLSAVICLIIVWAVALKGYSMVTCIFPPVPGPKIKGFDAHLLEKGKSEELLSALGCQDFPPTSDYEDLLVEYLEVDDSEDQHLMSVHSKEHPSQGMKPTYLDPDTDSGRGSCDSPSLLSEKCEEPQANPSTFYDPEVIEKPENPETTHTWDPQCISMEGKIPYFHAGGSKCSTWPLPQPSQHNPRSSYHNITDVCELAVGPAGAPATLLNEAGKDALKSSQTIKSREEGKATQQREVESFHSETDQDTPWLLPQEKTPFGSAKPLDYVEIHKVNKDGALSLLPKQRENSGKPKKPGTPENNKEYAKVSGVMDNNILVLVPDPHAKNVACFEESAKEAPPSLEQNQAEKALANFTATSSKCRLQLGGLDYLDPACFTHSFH

[5] = biological target: cyno PRLR on Baf3-cyPRLR cells (cyno); assay: cell-based or functional assay
[6] = biological target: T5, mouse PRLR on Baf3-mPRLR cells (mouse, UniProt Q08501 20-608); assay: cell-based or functional assay
T5 sequence (looked up): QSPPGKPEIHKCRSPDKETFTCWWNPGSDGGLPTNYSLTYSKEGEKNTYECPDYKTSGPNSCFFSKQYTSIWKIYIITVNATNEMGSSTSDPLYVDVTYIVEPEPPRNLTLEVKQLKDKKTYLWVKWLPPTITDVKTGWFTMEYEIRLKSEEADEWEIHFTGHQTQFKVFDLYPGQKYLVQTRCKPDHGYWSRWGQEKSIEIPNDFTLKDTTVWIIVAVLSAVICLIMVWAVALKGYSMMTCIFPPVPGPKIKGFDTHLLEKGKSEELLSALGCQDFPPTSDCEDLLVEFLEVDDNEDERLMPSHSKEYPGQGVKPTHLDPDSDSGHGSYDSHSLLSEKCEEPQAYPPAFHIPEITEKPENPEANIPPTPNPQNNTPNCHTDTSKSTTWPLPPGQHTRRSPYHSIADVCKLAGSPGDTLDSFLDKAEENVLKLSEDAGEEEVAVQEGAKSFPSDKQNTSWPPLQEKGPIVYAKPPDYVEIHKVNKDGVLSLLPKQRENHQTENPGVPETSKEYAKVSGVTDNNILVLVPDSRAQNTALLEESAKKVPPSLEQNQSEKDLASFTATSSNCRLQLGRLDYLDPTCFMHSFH

[7] = biological target: T6, cyno PRLR (Biacore antigen) (cyno, UniProt A0A2K5WXK1 25-234); assay: SPR Biacore
T6 construct: also called cyPRLR
T6 sequence: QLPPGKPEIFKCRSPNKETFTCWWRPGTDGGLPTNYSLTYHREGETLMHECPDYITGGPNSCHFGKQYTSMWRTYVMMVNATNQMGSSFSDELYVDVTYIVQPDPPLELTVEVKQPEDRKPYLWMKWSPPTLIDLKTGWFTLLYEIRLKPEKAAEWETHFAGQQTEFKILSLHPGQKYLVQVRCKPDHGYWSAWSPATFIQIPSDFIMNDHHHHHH
Outline: (§2)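 Association rate, dissociation rate and dissociation constant were measured by surface plasmon resonance on a Biacore instrument. PRLR antigen was tested at 600 nM, 66.67 nM and 7.41 nM, a 3-point, 9-fold dilution series. Constants came from a 1:1 binding model fit (local Rmax, mass-transport term included) in Biacore T200 Evaluation Software.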

[8] = biological target: T7, murine PRLR (Biacore antigen) (murine, UniProt Q08501 20-229, limits assumed); assay: SPR Biacore
T7 construct: also called muPRLR
T7 sequence (looked up): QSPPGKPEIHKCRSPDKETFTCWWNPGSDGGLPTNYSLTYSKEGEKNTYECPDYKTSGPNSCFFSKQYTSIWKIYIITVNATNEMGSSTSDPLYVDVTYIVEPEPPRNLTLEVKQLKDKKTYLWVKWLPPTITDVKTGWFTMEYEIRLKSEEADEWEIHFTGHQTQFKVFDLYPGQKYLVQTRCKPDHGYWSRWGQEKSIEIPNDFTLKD
Outline: as §2

[9] = biological target: T8, rat PRLR ECD-Fc fusion protein (rat, UniProt P05710 20-229); assay: ELISA on ECD
T8 construct: extracellular domain; not shown: Fc region (captured by goat anti-human Fc)
T8 sequence (looked up): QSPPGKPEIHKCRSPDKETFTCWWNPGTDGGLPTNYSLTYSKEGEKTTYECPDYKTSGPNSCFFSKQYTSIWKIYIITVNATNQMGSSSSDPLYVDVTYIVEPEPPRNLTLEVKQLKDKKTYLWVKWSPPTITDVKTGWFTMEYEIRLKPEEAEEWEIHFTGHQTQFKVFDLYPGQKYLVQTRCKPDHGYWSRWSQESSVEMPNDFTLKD
Method: as §1

[10] = biological target: T9, human PRLR (Biacore antigen) (human, UniProt P16471 25-234, limits assumed); assay: SPR Biacore
T9 construct: The construct injected over captured antibody is not described (a soluble form is likely); also called huPRLR
T9 sequence: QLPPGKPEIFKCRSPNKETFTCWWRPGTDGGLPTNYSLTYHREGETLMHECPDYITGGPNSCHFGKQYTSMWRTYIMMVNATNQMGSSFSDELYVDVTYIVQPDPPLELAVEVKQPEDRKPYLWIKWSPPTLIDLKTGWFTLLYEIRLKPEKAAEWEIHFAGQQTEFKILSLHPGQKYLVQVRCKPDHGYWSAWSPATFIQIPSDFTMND
Outline: as §2

Row | Binder | EC50 [1] [nM] | EC50 [2] [nM] | EC50 [3] [nM] | Baf3-hPRLR proliferation IC50 [4] [µg/mL] | Baf3-cyPRLR proliferation IC50 [5] [µg/mL] | Baf3-mPRLR proliferation IC50 [6] [µg/mL] | Kd [7] [nM] | koff [7] [s⁻¹] | kon [7] [M⁻¹ s⁻¹] | Kd [8] [nM] | koff [8] [s⁻¹] | kon [8] [M⁻¹ s⁻¹] | EC50 [9] [nM] | Kd [10] [nM] | koff [10] [s⁻¹] | kon [10] [M⁻¹ s⁻¹]
1 | Ab46 (antibody, human IgG1, kappa, V domains shown, humanized from Ab8; G1; also called Ab3 HC.1 and Ab3 LC.1b) VH: EVQLVQSGAEVKKPGASVKVSCKASGYTFTDYNIHWVRQAPGQGLEWMGYIYPNNDGTGYNQKFKSRVTMTTDTSTSTAYMELRSLRSDDTAVYYCARGDGNYVGDMDYWGQGTTVTVSS VL: DIQMTQSPSSLSASVGDRVTITCRASENIYSYLAWYQQKPGKAPKLLVYNAKTLAEGVPSRFSGSGSGTDFTLTISSLQPEDFATYYCQHHYATPFTFGQGTKLEIKR | 0.0814 | 0.0626 | 0.568 | 0.3 | 1.72 | > 30 | – | – | – | – | – | – | – | – | – | –
2 | Ab45 (antibody, human IgG1, kappa, V domains shown, humanized from Ab8; G1; also called Ab3 HC.1 and Ab3 LC.1a) VH: EVQLVQSGAEVKKPGASVKVSCKASGYTFTDYNIHWVRQAPGQGLEWMGYIYPNNDGTGYNQKFKSRVTMTTDTSTSTAYMELRSLRSDDTAVYYCARGDGNYVGDMDYWGQGTTVTVSS VL: DIQMTQSPSSLSASVGDRVTITCRASENIYSYLAWYQQKPGKPPKLLVYNAKTLAEGVPSRFSGSGSGTDFTLTISSLQPEDFATYYCQHHYATPFTFGQGTKLEIKR | 0.201 | 0.0684 | 0.978 | 0.31 | 2.24 | > 30 | – | – | – | – | – | – | – | – | – | –
3 | Ab28 (antibody, human IgG1, kappa, humanized from Ab5; G1; also called Ab2 HC.1 and Ab2 LC.1b) heavy: not shown light: DVVMTQTPLSLSVTPGQPASISCRSSQRLVHSNGNTYLHWYLQKPGQSPQLLIYKVSNRFSGVPDRFSGSGSGTDFTLKISRVEAEDVGVYYCSQSTHVPWTFGGGTKVEIKRTVAAPSVFIFPPSDEQLKSGTASVVCLLNNFYPREAKVQWKVDNALQSGNSQESVTEQDSKDSTYSLSSTLTLSKADYEKHKVYACEVTHQGLSSPVTKSFNRGEC | 0.0965 | – | 0.292 | 0.22 | 0.31 | – | 1.97 | 0.000619 | 315000 | 52 | 0.00606 | 117000 | 0.416 | – | – | –
4 | Ab38 (antibody, human IgG1, kappa, humanized from Ab7; G1; also called Ab4 HC.1a and Ab4 LC.1) heavy: not shown light: DIVMTQTPLSLSVTPGQPASISCRSSQSLVHSNGNTYLHWYLQKPGQSPQLLIYKVSNRFSGVPDRFSGSGSGTDFTLKISRVEAEDVGVYYCSQSTHVPFTFGGGTKVEIKRTVAAPSVFIFPPSDEQLKSGTASVVCLLNNFYPREAKVQWKVDNALQSGNSQESVTEQDSKDSTYSLSSTLTLSKADYEKHKVYACEVTHQGLSSPVTKSFNRGEC | 0.264 | 0.346 | – | 0.42 | 0.25 | > 30 | 6.04 | 0.000756 | 125000 | 994 | 0.0527 | 53000 | – | 6.22 | 0.000879 | 141000
5 | Ab26 (antibody, human IgG1, kappa, humanized from Ab5; G1; also called Ab HC.1 and Ab2 LC.1) heavy: not shown light: DIVMTQTPLSLSVTPGQPASISCRSSQRLVHSNGNTYLHWYLQKPGQSPQLLIYKVSNRFSGVPDRFSGSGSGTDFTLKISRVEAEDVGVYYCSQSTHVPWTFGGGTKVEIKRTVAAPSVFIFPPSDEQLKSGTASVVCLLNNFYPREAKVQWKVDNALQSGNSQESVTEQDSKDSTYSLSSTLTLSKADYEKHKVYACEVTHQGLSSPVTKSFNRGEC | 0.151 | – | 0.201 | 0.23 | 0.25 | – | – | – | – | – | – | – | 0.164 | – | – | –
6 | Ab37 (antibody, human IgG1, kappa, humanized from Ab7; G1; also called Ab4 HC.1 and Ab4 LC.1b) heavy: not shown light: DVVMTQTPLSLSVTPGQPASISCRSSQSLVHSNGNTYLHWYLQKPGQSPQLLIYKVSNRFSGVPDRFSGSGSGTDFTLKISRVEAEDVGVYYCSQSTHVPFTFGGGTKVEIKRTVAAPSVFIFPPSDEQLKSGTASVVCLLNNFYPREAKVQWKVDNALQSGNSQESVTEQDSKDSTYSLSSTLTLSKADYEKHKVYACEVTHQGLSSPVTKSFNRGEC | 0.186 | 0.184 | – | 0.43 | 0.44 | > 30 | 12.3 | 0.00132 | 107000 | 1670 | 0.0687 | 41100 | – | 12.3 | 0.00146 | 119000
